According to US20020132976A1, “Immunogenic peptides derived from prostate-specific antigen (PSA) and uses thereof” (priority 2000, published 2002):
Marks after values point to notes of the source that are not given here.

Key:
[1] = molecular target: T1, HLA-A0201 molecules on T2 cells (Homo sapiens, UniProt P04439, D140Y/D185E/D98H/E176V/E277Q/G131W/G231S/I119V/I121R/I166T/I218V/L300P/L318F/N151K/N90K/P208A/P217A/Q86G/Q94H/R138H/R169H/T345S); test: Capacity of PSA derived peptides to bind and stabilize HLA-A0201 molecules on T2 cells (BB7.2 antibody, flow cytometry); format: cell-based; conditions: for Fluorescence Index (FI): T2 cells; for HLA-A0201 binding as judged by Fluorescence Index (FI) values: membrane-bound HLA-A0201 molecules on T2 cells
T1 construct: endogenous in cells; host or cells: T2 cell line (Dr. Peter Creswell, Yale University)
Protocol: The ability of the PSA derived peptides described in Table 1 to stabilize membrane-bound HLA-A0201 molecule was assessed utilizing the T2 cell line (Dr. Peter Creswell, Yale University). The cell line has been well documented to have a defective TAP (i.e. Transporter for Antigen Processing) transporter function. As a result, the majority of intracellularly generated peptides are not transported into the endoplasmic reticulum and thus are unable to associate with newly synthesized HLA class 1 MHC molecules (i.e. HLA-A0201; Salter, R D and Creswell, P. (1986) EMBO J 5:943). […] The stability of the surface HLA-A0201 molecules can be restored upon interaction with suitable exogenous peptides. The stabilization of the conformation of the class 1 MHC molecules is accompanied by the formation of an immunodominant epitope recognized by a mouse monoclonal antibody (designated BB7.2; American Type Culture Collection (ATCC)). Thus, the detection of this specific epitope is indicative of stable membrane-bound HLA-A0201 molecules loaded with peptide. Subsequent dissociation of peptides from the HLA class 1 MHC molecules results in the loss of BB7.2 monoclonal antibody binding.
T2 cells were propagated in Iscove's complete medium (iscove's medium supplemented with 10% heat-inactivated bovine serum, 120.0 units per ml of penicillin G sodium, 120 μg per ml of streptomycin sulphate, and 0.35 mg per ml of L-glutamine). The ability of PSA peptides (Table 1) to bind and stabilize surface HLA-A0201 molecules on T2 cells was determined utilizing a protocol documented in the art (Deng, Y. (1997) J Immune 158:1507-1515). In essence, 0.5×10^6 T2 cells were incubated with 125.0 μM of the test peptide in 200.0 μl of serum-free culture medium (Iscove's medium supplemented with 120.0 units per ml of penicillin G sodium, 120.0 μg per ml of streptomycin sulphate and 0.35 mg per ml of L-glutamine) overnight at 37° C. Subsequently, cells were washed twice with Iscove's medium (without bovine serum) to remove free PSA peptide. To the cell pellet was added 1.0 ml of complete Iscove's medium (supplemented with fetal bovine serum (10% final)) containing 5.0 μg per ml of brefeldin A (Sigma), 12.5 μg per ml of anisomycin (Sigma) and 5.0 μg per ml of cyclohexamide (Sigma). […] The cells were subsequently incubated 30 min on ice prior to two washes with ice-cold PBA (phosphate buffered saline (pH 7.2) containing 2.0% bovine serum). 100.0 μl of PBA containing 5.0 μg of monoclonal antibody BB7.2 was added to each test sample. The reaction was allowed to proceed on ice for 45 min. Cells were then washed three times with ice-cold PBA. The binding of BB7.2 was detected via the addition of 100.0 μl of PBA containing […] of goat anti-mouse IgG-Fc fluorescein (FITC) conjugate (BETHYL Laboratories Inc.). After a 30 min incubation on ice, cells were twice washed with ice-cold PBA, and twice with ice-cold PBS (pH 7.2). Cells were immediately fixed by the addition of 50.0 μl of 1.0% paraformaldehyde. Samples were analyzed by Flow Cytometry. Results were expressed in units of Fluorescence Index (FI), calculated by the equation: […]
Mean Fluorescence (MF) of experimental sample (peptide treated)−MF of control sample (cells not peptide treated) MF of control sample (cells not peptide treated)
An FI value of 0.5 or greater was deemed to be significant.

[2] = tested on: A2Kb transgenic mouse; test: Immunogenicity of PSA peptide in A2Kb transgenic mice (51Cr-release CTL assay); format: in vivo; conditions: 100.0 μg peptide subcutaneously in IFA with I-Ab-restricted peptide; spleenocytes re-stimulated in vitro; 4 hr 51Cr-release, P815-A2Kb targets; FIG. 1
Protocol: The A2Kb transgenic mouse was used to assess the immunogenicity of the HLA-A0201 binding PSA peptides. Mice of the B1O background (transgenic for the A2Kb chimeric gene) were purchased from the Scripps Clinic in California, USA. Mice were injected subcutaneously at the base of the tail with a dose of inoculum prepared by emulsifying 100.0 μg of the test peptide and 100.0 μg of an I-A^b-restricted peptide (described in Milich, D. R. et al. (1987) J. Immune 139: 1223-1231) in incomplete Freund's adjuvant (IFA). Spleens of the experimental animals were collected on the 10th or 11th day post immunization. Spleenocytes of the experimental mice were prepared and cultured to enrich for CTLs before being assessed for effector activity. In vitro re-stimulation of the in vivo generated CTLs was performed by co-culturing in a 25 cm^2 tissue culture flask 3×10^7 responder cells (i.e. spleenocytes) with 1.3×10^7 irradiated autologous LPS (lipopolysaccharide)-blasts which had been pulsed with the respective peptide (100.0 μg per 10^8 cells). Cultures were kept in a 37° C., humidified CO2 incubator for 6-7 days before being tested for effector function in a standard 4 hr in vitro ^51Cr-release CTL assay as follows. The responders were harvested from the 6-7 day cultures and washed twice with RPMI-1640 medium (without bovine serum). […] Supernatant aliquots were then removed and counted for radioactivity.

[3] = 125.0 μM peptide overnight at 37° C., then 3.0 hr de-stabilization step, FI of 0.5 or greater deemed significant

| Sequence | Fluorescence Index (FI) [1, 3] | HLA-A0201 binding as judged by Fluorescence Index (FI) values [1] | Immunogenicity / epitope-specific CTL response [2] | Fluorescence Index (FI) ([1]; 125.0 μM peptide, analysis did not include 3 hr de-stabilization step) |
| --- | --- | --- | --- | --- |
| DLHVISNDV [CLP-317] | 0 |  |  |  |
| DLPTQEPAL (CLP315) [CLP-315, PSA derived peptide, preproprotein positions 140-148] | 0 |  |  |  |
| KLQCVDLHV (CLP316) [CLP-316, PSA derived peptide, preproprotein positions 170-178] | 2.7 | demonstrated HLA-A0201 binding | immunogenic and capable of eliciting an epitope-specific CTL response |  |
| MWVPVVFL (CLP313) [CLP-313, PSA derived peptide, preproprotein positions 1-8] | 1.0 | demonstrated HLA-A0201 binding |  |  |
| PLYDMSLLK (CLP320) [CLP-320] |  | does not exhibit binding |  | 0.2** |
| VLVHPQWVL [CLP-314] | 1.1 | demonstrated HLA-A0201 binding |  |  |
